The values that follow come from publication PMC4510971 (2015).

Sequences and labels used below:
B1: UBN1(92–175) (domain or fragment)
chain: NDEEKERHKVEALARKFEEKYGGKKRRKDRIQDLIDMGYGYDESDSFIDNSEAYDELVPASLTTKYGGFYINSGTLQFRQASES
B2: UBN1(92–175) E147A (protein)
chain: B1 chain with E56A
B3: UBN1(92–175) Y145A (protein)
chain: B1 chain with Y54A
B4: UBN1(92–175) D146A (protein)
chain: B1 chain with D55A
B5: UBN1(92–175) Q123A (protein)
chain: B1 chain with Q32A
B6: UBN1(92–175) I126A (protein)
chain: B1 chain with I35A
B7: UBN1(92–175) L148A (protein)
chain: B1 chain with L57A
B8: UBN1(92–175) Y130A (protein)
chain: B1 chain with Y39A
B9: UBN1(92–175) A144I (protein)
chain: B1 chain with A53I
B10: UBN1(92–175) I122A (protein)
chain: B1 chain with I31A
B11: UBN1(92–175) G131A (protein)
chain: B1 chain with G40A
B12: UBN1(92–175) E143A (protein)
chain: B1 chain with E52A
B13: UBN1(92–175) D127A (protein)
chain: B1 chain with D36A
B14: UBN1(92–175) S137A (domain or fragment)
chain: B1 chain with S46A
B15: UBN1(92–175) L125A (protein)
chain: B1 chain with L34A
B16: UBN1(92–175) G129A (protein)
chain: B1 chain with G38A
B17: UBN1(92–175) M128A (protein)
chain: B1 chain with M37A
B18: UBN1(92–175) D124A (protein)
chain: B1 chain with D33A
B19: UBN1(122–175) (domain or fragment)
chain: not shown
B20: UBN1(92–148) (domain or fragment)
chain: NDEEKERHKVEALARKFEEKYGGKKRRKDRIQDLIDMGYGYDESDSFIDNSEAYDEL

The Kd is the free concentration of one partner at which half of the binding sites on the other are occupied at equilibrium, for simple one-to-one binding. Low readings indicate higher affinity, high ones lower affinity. One may read the IC50 as the point on the concentration scale where inhibition reaches its midpoint.

Numbering of substitutions follows the chain as printed. Names and notes keep the numbering of the source.

The first assay addresses T1, H3.3/H4 (human | X. laevis, UniProt P84243 1-136; P62799 1-103). As to the kind of experiment: ITC. (In ITC the heat of successive injections is recorded.)
On to B1, for which binding was characterised by a dissociation constant (Kd) of 6.9 µM.

The target in another assay is T1, H3.3/H4. Nature of the assay: FP.
Take IQDLIDMGYGYDESDSFIDNSEAYDEL [UBN1(122–148) peptide]: the concentration for half-maximal inhibition (IC50) worked out at 46.4 µM.

The target of a further assay is T1, H3.3/H4. Nature of the assay: FP. The source holds these as a separate data set.
Molecule B2 displayed an IC50 of 22.9 µM.

Molecule B3 came in with an IC50 of 16.4 µM.

Molecule B4 gave an IC50 of 23 µM. On the same count and under the same terms, the value for B5 was 13.8 µM; that for B6 was 13.8 µM; that for B7 was 19.6 µM. B8: the IC50 came to 14.4 µM.

In the case of B9, the IC50 turned out to be 16.3 µM.

B10 had an IC50 of 16.9 µM.

On to B11, for which the IC50 turned out to be 19.9 µM. As to B12, the concentration for half-maximal inhibition (IC50) was found to be 29.3 µM.

B1 showed an IC50 of 16.6 µM. As for B13, the IC50 amounted to 21.1 µM. The same measure, in the same setting: the value for B14 was 16.2 µM; that for B15 was 15.1 µM.

For B16, the IC50 was found to be 67.8 µM.

On to B17, for which the midpoint of inhibition, the IC50, lay at 22.6 µM. B18 displayed an IC50 of 19.6 µM.

Another assay has as its target T1, H3.3/H4. Nature of the assay: ITC. The source holds these as a separate data set.
Consider B19, for which the Kd turned out to be 14.6 µM. B20 had a Kd of 16.5 µM.

The target in the next assay is H3.3(G90M)/H4 (human | X. laevis, UniProt P62799 1-103). As to the kind of experiment: ITC.
IQDLIDMGYGYDESDSFIDNSEAYDEL [UBN1(122–148) peptide] returned a Kd of 115 µM.
